Laboratory results published in paper PMC9006650, “Phosphorylation and acetylation of mitochondrial transcription factor A promote transcription processivity without compromising initiation or DNA compaction”.

Target: T1, TFAM (unmodified) (Homo sapiens, UniProt Q00059 43-246)
T1 sequence: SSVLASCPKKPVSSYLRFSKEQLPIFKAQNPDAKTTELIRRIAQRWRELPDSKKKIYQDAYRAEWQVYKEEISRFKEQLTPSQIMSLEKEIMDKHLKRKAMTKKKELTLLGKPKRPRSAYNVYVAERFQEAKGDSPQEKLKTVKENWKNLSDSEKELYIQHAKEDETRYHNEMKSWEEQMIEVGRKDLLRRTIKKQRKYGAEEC
Assay: EMSA; 40 nM DNA; 50, 25, 12 bp per TFAM; no gel shift (legend: very low affinity); pUC19: 50 mM Tris-acetate pH 8.0, 100 mM K acetate, 5 mM Mg acetate, 1 mM DTT, 37 C 30 min, 1% agarose at 4 C; poly-T: 25 mM Tris-HCl pH 8.0, 70 mM NaCl, 10 mM
Conditions: protein: recombinant; tags: N-terminal His6 removed with TEV protease; label: 5'-32P; single strand

Binder: TTTTTTTTTTTTTTTTTTTTTTTTTTTTTT (ssDNA) [poly-T ssDNA 30-mer]
- binding result: no binding
